# From US20230203155A1 (ALMAC DISCOVERY, published 2023)
# T1: Peptide 3 (human)
# T1 construct: linear ROR1 ECD peptide
# T1 peptide: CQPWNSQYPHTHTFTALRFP
# T2: Peptide 4 (human)
# T2 construct: linear ROR1 ECD peptide
# T2 peptide: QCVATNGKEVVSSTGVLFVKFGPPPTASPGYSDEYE
# T3: Peptide 2 (human)
# T3 construct: linear ROR1 ECD peptide; insoluble in PBS
# T3 peptide: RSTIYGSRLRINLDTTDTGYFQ
# T4: Peptide 1 (human)
# T4 construct: linear ROR1 ECD peptide
# T4 peptide: YMESLHMQGEIENQI
# B1: P3A1 his myc (VNAR)
# VNAR: TRVDQTPRTATKETGESLTINCVLTDTSYGLYSTSWFRKNPGTTDWERMSIGGRYVESVNKGAKSFSLRIKDLTVADSATYYCKAREARHPWLRQWYDGAGTVLTVNQ
# notes: VNAR; also called P3A1 6xHis myc
# B2: Peptide 5 (peptide)
# peptide: RSTIYGSRLRIRNLDTTDTGYFQ
# notes: linear ROR1 ECD peptide
# How the values were obtained:
# Fz-Kr-Fc = target: T5, Fz-Kr-Fc; assay: analytical SEC and SDS-PAGE of fractions
# T5 construct: also called human ROR1 (FZKR domains)-Fc (CHO)
# Description: 1:1 VNAR:ROR1 domain or ROR1 domain pairs was incubated on ice for 30 mins then run on a the Superdex 200 increase 10/300 column (GE Healthcare) in PBS and fractions analysed by SDS-PAGE.
# Complex formation was then assessed using analytical SEC.
# [1] = target: T6, rat ROR1-Fc fusion protein (rat); assay: SPR, rat ROR1 on chip
# T6 construct: Whole entry 'rat ROR1-Fc (CHO)'; also called rROR1
# Description: (§1) Binding kinetics were determined using a Pioneer Surface Plasmon Resonance (SPR) instrument (SensiQ/Pall ForteBio). […] VNARs and VNAR-Fc molecules were tested at various concentrations and the Ka (M⁻¹s⁻¹), Kd (s⁻¹) and KD (nM) values were determined using QDat software (SensiQ/Pall ForteBio).
# [2] = target: T7, human ROR1-hFc fusion protein (extracellular domain) (human); assay: SPR, ROR1-hFc on chip
# T7 construct: Whole entry 'human ROR1-Fc (CHO)'; also called hROR1; huROR1-Fc
# Description: as §1
# [3] = target: T8, recombinant human ROR1 (hROR1), construct not stated (human, UniProt Q01973 30-403, limits assumed); assay: SPR, hROR1 on chip
# [4] = target: T9, mouse ROR1-Fc fusion protein (mouse); assay: SPR, mouse ROR1 on chip
# T9 construct: Whole entry 'mouse ROR1-Fc (CHO)'; also called mROR1
# Description: as §1
# [5] = target: T8, recombinant human ROR1 (hROR1), …; assay: SPR, hROR1 on chip with competitor B1 pre-captured
# Description: (§2) Competition of binding studies were completed using SPR. […] FC2 was used as the reference channel. […] Binding kinetics were determined using QDat software.
# [6] = target: T7, human ROR1-hFc fusion protein …; assay: SPR, ROR1-hFc on chip; remark: listed apart in the source
# Description: as §1
# Peptide 5 = target: B2; assay: direct ELISA on coated peptide 5 [continued]
# Description: (§3) In brief, ELISA method as follows. Wells coated with 100 ng antigen and incubated, covered, at room temperature for 2 hr. Plates washed 3×400 ul per well with PBST (PBS+0.05% Tween 20 (v/v)), then blocked with 4% skimmed milk powder (w/v) in PBST for 1 hour at 37° C. Plates washed as before plus additional wash in PBS alone. Binding proteins were diluted in 4% milk PBST and incubated overnight at 4° C. Plates washed 3× with PBST, 3×PBS and binding detected using appropriate secondary detection antibody in 4% milk PBST, room temperature 1 hour. […] Rabbit anti-Mouse IgG H&L, HRP (Abcam #ab97046) [0360] Mouse anti-polyHis, HRP (Sigma #A7058)
# [7] = target: T10, human ROR2-hFc fusion protein (extracellular domain) (human); assay: direct ELISA, panel Binding to human ROR2-Fc
# T10 construct: Whole entry 'human ROR2-Fc (CHO)'; also called hROR2
# Description: as §3
# Peptide 3 = target: T1, Peptide 3; assay: direct ELISA on coated peptide (in PBS), panel P3A1 direct binding ELISA
# Peptide 4 = target: T2, Peptide 4; assay: as above
# Peptide 2 = target: T3, Peptide 2; assay: as above
# Peptide 1 = target: T4, Peptide 1; assay: as above
# [8] = target: T11, human ROR1 (FZ domain)-Fc (human); assay: direct ELISA on coated Frizzled domain, panel Binding of P3A1 to human ROR1 domains
# T11 construct: also called Fz-Fc; Frizzle domain
# D3 his myc = target: T12, D3 his myc; assay: competition ELISA: VNAR pre-incubated with peptide 5, residual binding to coated huROR1-Fc [continued]
# T12 construct: VNAR; made in E. coli and in HEK293 (expression system under assay); also called D3 WT
# Description: as §3
# (§4) Competition assays were conducted as described in the methods with all four peptides reconstituted in PBS.
# [9] = target: T13, B1 VNAR with C-terminal His6Myc tag; assay: as above
# T13 construct: VNAR, E. coli; also called B1 his myc; B1HisMyc monomer
# Description: as §3, §4
# P3A1 his myc = target: B1; assay: as above
# Description: as §3, §4
# D3-[G4S]5-D3 his myc = target: T14, D3-[G4S]5-D3 his myc; assay: as above
# T14 construct: VNAR homodimer by genetic fusion; also called D3-D3; D3 dimer
# Description: as §3, §4
# [10] = target: T8, recombinant human ROR1 (hROR1), …; assay: SPR, hROR1 on chip; remark: listed apart in the source
# Description: as §2
# [11] = target: T7, human ROR1-hFc fusion protein …; assay: Octet or SPR, hROR1
# Description: as §1
# Binding kinetics were determined using a SPR (as previously described) or using Biolayer interferometry (K2 Octet instrument/Pall ForteBio). […] VNARs and VNAR-Fc molecules were tested at various concentrations and the Ka (M−1s−1), Kd (s−1) and KD (nM) values were determined using the Octet data analysis HT software (Pall ForteBio).
# [12] = target: T15, human ROR1 on the surface of ROR1hi human cancer cell lines (human, UniProt Q01973 30-937); assay: flow cytometry, A549 (ROR1hi) cells, 4°C
# T15 construct: whole, on cells; Cell line is named under assay; also called cell surface ROR1
# [13] = target: T10, human ROR2-hFc fusion protein …; assay: SPR, ROR2-hFc on chip
# Description: as §1
# (§5) The ability of the VNAR-MMAE conjugates and VNAR-fluorescein conjugates to bind to human ROR1 ECD was determined by SPR using the procedures described above.
# [14] = target: T7, human ROR1-hFc fusion protein …; assay: SPR, human ROR1 ECD-Fc on chip;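 further: SPR binding kinetics of VNAR and VNAR-Fc molecules run at a range of concentrations over immobilised target, rate and affinity constants fitted with QDat software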
# Description: as §1
# Thermal stability assays used Applied Biosystems StepOne Real Time PCR system with the Protein Thermal Shift™ dye kit (Thermo). The assay mix was set up so that the protein was at a final concentration of 20 OA in 20 μL. 5 μL of Thermal Shift™ buffer was added alongside 2.5 uL 8× Thermal Shift™ Dye. Assays were run using the StepOne software and data analysed using Protein Thermal Shift™ software. All data are from first derivative analysis.
# [15] = target: T7, human ROR1-hFc fusion protein …; assay: SPR, ROR1-hFc on chip; remark: listed apart in the source
# Description: as §1, §5
# [16] = target: T8, recombinant human ROR1 (hROR1), …; assay: SPR, hROR1 on chip with competitor P3A1 dimer pre-captured
# Description: as §2
# [17] = target: T15, human ROR1 on the surface of ROR1hi …; assay: flow cytometry, A549 (ROR1hi) cells
# Description: Adherent human cancer cells were detached from tissue culture flasks by incubating with 0.1% EDTA/PBS solution at 37° C. for −10 minutes or until cells detached easily. Cells were re-suspended in 5 ml ice-cold PBS/2% FCS in 15 ml tubes and centrifuged at 1500 rpm for 5 mins at 4° C. Supernatant was removed and the cell pellet re-suspended in 1-2 ml of PBS/2% FCS. A cell count was performed using a Z1 Coulter Particle Counter (Beckman Coulter) and 5×10\hat{ }5 cells were aliquoted per test sample. Cells were incubated with 100 μl of either VNAR (His₆Myc tagged), VNAR-Fc molecules or ROR1 mAb and IgG controls for 1 hour on ice. Excess VNAR, VNAR-Fc or mAb was removed by adding 5 ml of ice-cold PBS/2% FCS, followed by centrifugation at 1500 rpm for 5 mins at 4° C. The supernatant was removed and a second wash performed by re-suspending the cell pellet in 1 ml of ice-cold PBS/2% FCS and adding a further 4 ml of ice-cold PBS/2% FCS. Samples were again centrifuged at 1500 rpm for 5 min at 4° C. Supernatant was removed and excess liquid removed by blotting the tubes on tissue paper. […] Cells were incubated with chosen secondary antibody for 30 min on ice. Cells were washed to remove excess antibody as described earlier. […]
# human serum albumin = target: T16, human serum albumin (human, UniProt P02768 25-609); assay: ELISA at fixed concentration
# T16 construct: also called HSA
# [18] = target: T10, human ROR2-hFc fusion protein …; assay: SPR, ROR2-hFc on chip; remark: listed apart in the source
# Description: as §1
# (§6) Using the procedures outlined above the binding of VNAR-Fc fusions to human, mouse and rat ROR1 and human ROR2 were determined by SPR.
# [19] = target: T7, human ROR1-hFc fusion protein …; assay: SPR, ROR1-hFc on chip; remark: listed apart in the source
# Description: as §1, §6
# T10 sequence (chain, as listed by the source limits assumed): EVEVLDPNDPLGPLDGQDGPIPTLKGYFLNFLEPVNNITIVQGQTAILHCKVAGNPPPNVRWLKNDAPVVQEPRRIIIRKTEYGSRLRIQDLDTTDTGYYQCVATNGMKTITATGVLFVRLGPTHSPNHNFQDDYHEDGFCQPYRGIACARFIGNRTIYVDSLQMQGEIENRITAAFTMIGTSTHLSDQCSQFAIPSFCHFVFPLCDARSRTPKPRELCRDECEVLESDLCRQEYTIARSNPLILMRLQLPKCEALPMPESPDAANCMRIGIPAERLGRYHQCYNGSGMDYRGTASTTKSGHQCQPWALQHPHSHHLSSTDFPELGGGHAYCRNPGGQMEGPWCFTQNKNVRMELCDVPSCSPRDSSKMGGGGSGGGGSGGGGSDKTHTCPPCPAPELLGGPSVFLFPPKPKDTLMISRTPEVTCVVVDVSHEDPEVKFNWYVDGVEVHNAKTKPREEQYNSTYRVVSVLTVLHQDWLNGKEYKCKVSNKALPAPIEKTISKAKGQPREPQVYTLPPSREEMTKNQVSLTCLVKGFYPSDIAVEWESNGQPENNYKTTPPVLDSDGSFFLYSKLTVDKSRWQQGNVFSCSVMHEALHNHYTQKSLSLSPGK
# T6 sequence (chain, as listed by the source limits assumed): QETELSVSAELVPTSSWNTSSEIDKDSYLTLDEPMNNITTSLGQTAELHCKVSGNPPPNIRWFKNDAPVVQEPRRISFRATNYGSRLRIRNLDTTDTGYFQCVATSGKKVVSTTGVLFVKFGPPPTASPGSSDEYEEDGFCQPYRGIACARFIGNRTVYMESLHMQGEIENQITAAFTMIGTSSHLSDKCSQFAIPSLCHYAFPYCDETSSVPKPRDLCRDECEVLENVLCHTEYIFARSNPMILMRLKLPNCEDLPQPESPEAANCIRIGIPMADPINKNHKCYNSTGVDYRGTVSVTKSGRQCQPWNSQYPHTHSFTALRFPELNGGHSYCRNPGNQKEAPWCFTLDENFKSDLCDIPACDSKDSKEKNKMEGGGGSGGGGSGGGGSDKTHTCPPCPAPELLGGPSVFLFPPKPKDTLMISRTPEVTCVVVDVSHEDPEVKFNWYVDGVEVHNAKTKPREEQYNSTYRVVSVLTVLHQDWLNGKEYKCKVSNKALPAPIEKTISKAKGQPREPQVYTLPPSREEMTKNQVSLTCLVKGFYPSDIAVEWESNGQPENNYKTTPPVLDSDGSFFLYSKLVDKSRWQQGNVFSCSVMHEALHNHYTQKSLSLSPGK
# T9 sequence (chain, as listed by the source limits assumed): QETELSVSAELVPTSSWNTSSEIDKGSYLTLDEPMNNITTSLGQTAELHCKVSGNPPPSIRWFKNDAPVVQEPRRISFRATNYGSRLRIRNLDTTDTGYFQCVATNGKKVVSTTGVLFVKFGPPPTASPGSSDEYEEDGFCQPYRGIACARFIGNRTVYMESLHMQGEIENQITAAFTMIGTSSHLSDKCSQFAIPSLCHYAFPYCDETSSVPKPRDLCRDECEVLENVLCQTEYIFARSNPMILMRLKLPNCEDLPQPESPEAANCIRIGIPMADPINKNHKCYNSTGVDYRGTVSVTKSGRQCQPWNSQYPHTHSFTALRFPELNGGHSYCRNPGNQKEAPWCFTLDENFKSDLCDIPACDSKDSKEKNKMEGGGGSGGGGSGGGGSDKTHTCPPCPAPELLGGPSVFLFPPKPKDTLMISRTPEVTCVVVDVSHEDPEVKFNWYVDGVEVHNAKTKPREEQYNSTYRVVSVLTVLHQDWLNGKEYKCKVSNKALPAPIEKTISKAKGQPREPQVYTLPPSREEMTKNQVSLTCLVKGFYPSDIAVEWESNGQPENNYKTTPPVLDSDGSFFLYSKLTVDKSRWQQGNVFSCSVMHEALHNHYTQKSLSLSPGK
# T7 sequence (chain, as listed by the source limits assumed): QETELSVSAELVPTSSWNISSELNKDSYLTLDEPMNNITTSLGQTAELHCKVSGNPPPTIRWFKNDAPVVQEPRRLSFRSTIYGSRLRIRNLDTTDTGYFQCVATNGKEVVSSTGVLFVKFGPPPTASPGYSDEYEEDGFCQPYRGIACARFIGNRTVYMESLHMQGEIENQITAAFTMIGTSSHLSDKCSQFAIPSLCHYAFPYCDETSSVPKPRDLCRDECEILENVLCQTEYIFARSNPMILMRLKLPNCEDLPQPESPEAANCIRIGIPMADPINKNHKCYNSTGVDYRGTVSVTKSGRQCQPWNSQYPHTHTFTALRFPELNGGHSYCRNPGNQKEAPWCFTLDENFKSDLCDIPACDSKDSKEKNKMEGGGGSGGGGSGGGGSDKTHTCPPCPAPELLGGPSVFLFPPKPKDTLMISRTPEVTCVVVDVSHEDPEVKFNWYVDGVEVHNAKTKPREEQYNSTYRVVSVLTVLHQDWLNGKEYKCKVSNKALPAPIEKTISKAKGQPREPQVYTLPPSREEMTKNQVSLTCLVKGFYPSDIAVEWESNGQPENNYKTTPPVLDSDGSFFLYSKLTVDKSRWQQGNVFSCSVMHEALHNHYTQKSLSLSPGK
# T5 sequence (Fc fusion chain, as listed by the source): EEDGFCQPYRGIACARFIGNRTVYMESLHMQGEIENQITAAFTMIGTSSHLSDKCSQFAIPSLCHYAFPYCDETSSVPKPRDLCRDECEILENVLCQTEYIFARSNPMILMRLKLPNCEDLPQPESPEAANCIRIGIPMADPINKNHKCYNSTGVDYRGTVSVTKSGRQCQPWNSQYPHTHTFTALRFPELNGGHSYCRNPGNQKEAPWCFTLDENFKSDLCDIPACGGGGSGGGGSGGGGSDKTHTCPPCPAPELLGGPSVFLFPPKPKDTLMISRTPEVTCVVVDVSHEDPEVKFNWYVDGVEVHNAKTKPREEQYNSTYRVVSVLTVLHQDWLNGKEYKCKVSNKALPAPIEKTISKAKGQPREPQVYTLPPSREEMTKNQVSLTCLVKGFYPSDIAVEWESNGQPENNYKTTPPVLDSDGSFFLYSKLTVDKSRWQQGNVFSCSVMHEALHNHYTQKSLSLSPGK
# T11 sequence (chain, as listed by the source limits assumed): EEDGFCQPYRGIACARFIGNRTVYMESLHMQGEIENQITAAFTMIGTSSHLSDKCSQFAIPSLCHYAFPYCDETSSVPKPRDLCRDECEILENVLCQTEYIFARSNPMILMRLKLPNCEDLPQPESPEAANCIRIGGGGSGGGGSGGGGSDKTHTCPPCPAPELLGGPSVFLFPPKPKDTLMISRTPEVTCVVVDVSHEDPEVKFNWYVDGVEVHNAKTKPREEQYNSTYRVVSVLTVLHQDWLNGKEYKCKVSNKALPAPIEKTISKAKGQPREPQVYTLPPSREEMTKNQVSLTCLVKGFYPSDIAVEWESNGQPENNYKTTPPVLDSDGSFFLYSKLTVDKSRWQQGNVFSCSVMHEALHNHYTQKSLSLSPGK
binder,measurement,setting,value
B1,binding result,Fz-Kr-Fc,binds
same,Kd,[1],17.7 nM
same,koff,[1],0.045 s⁻¹
same,kon,[1],2.86e+06 M⁻¹ s⁻¹
same,Kd,[2],19.1 nM
same,koff,[2],0.0442 s⁻¹
same,kon,[2],2.47e+06 M⁻¹ s⁻¹
same,Kd,[3],15.9 nM
same,koff,[3],0.0411 s⁻¹
same,kon,[3],2.58e+06 M⁻¹ s⁻¹
same,Kd,[4],14.3 nM
same,koff,[4],0.0408 s⁻¹
same,kon,[4],2.95e+06 M⁻¹ s⁻¹
same,Kd,[5],16.4 nM
same,koff,[5],0.032 s⁻¹
same,kon,[5],1.94e+06 M⁻¹ s⁻¹
same,Kd,[6],25.6 nM
same,koff,[6],0.025 s⁻¹
same,kon,[6],980000 M⁻¹ s⁻¹
same,binding result,Peptide 5,no binding
same,binding result,[7],no binding (tested: 10 ug/ml)
same,binding result,Peptide 3,no binding (tested: 1000 ng/ml)
same,binding result,Peptide 4,no binding (tested: 1000 ng/ml)
same,binding result,Peptide 2,no binding (tested: 1000 ng/ml)
same,binding result,Peptide 1,no binding (tested: 1000 ng/ml)
same,binding result,[8],binds
B2,binding result,D3 his myc,no binding (tested: 1000 nM)
same,binding result,[9],no binding (tested: 1000 nM)
same,binding result,P3A1 his myc,no binding (tested: 1000 nM)
same,binding result,D3-[G4S]5-D3 his myc,no binding (tested: 1000 nM)
"P3A1-[G4S]5-P3A1 his myc (VNAR, VNAR homodimer by genetic fusion; also called P3A1-P3A1; P3A1 dimer) TRVDQTPRTATKETGESLTINCVLTDTSYGLYSTSWFRKNPGTTDWERMSIGGRYVESVNKGAKSFSLRIKDLTVADSATYYCKAREARHPWLRQWYDGAGTVLTVNGGGGSGGGGSGGGGSGGGGSGGGGSTRVDQTPRTATKETGESLTINCVLTDTSYGLYSTSWFRKNPGTTDWERMSIGGRYVESVNKGAKSFSLRIKDLTVADSATYYCKAREARHPWLRQWYDGAGTVLTVNQASGAHHHHHHGAEFEQKLISEEDL",Kd,[10],0.538 nM
same,koff,[10],0.00141 s⁻¹
same,kon,[10],2.62e+06 M⁻¹ s⁻¹
same,Kd,[1],0.57 nM
same,koff,[1],0.00173 s⁻¹
same,kon,[1],3.18e+06 M⁻¹ s⁻¹
same,Kd,[2],0.3 nM
same,koff,[2],0.00112 s⁻¹
same,kon,[2],4.9e+06 M⁻¹ s⁻¹
same,Kd,[3],0.385 nM
same,koff,[3],0.000628 s⁻¹
same,kon,[3],1.63e+06 M⁻¹ s⁻¹
same,Kd,[11],0.3 nM
same,Kd,[4],0.396 nM
same,koff,[4],0.00145 s⁻¹
same,kon,[4],4.17e+06 M⁻¹ s⁻¹
same,koff,[5],0.000536 s⁻¹
same,kon,[5],1.52e+06 M⁻¹ s⁻¹
same,Kd,[6],0.35 nM
same,koff,[6],0.000637 s⁻¹
same,kon,[6],2.08e+06 M⁻¹ s⁻¹
same,Median YL1-PE,[12],2340
same,binding result,[13],no binding
same,Kd,[14],0.3 nM
same,koff,[14],0.00117 s⁻¹
same,kon,[14],3.78e+06 M⁻¹ s⁻¹
same,Kd,[15],1.61 nM
same,koff,[15],0.00296 s⁻¹
same,kon,[15],1.86e+06 M⁻¹ s⁻¹
same,Kd,[16],3.08 nM
same,koff,[16],0.00226 s⁻¹
same,kon,[16],734000 M⁻¹ s⁻¹
"CPF7-[G4S]5-CPF7 his myc (VNAR, VNAR homodimer; also called CPF7-CPF7 dimer) TRVDQTPRTATKETGESLTINCVVTGAKYGLFATYWYRKNPGSSNQERISISGRYVESVNKRTMSFSLRIKDLTVADSATYYCKAVFMPQHWHPAAHWYDGAGTVLTVNGGGGSGGGGSGGGGSGGGGSGGGGSTRVDQTPRTATKETGESLTINCVVTGAKYGLFATYWYRKNPGSSNQERISISGRYVESVNKRTMSFSLRIKDLTVADSATYYCKAVFMPQHWHPAAHWYDGAGTVLTVNQASGAHHHHHHGAEFEQKLISEEDL",binding result,[17],binds
BA11-2V HisMyc (VNAR) TRVDQSPSSLSASVGDRVTITCVLTDTSYPLYSTYWYRKNPGSSNKEQISISGRYSESVNKGTKSFTLTISSLQPEDSATYYCRAMSTNIWTGDGAGTKVEIKGGGGSGGGGSGGGGSGGGGSGGGGSTRVDQTPRTATKETGESLTINCVLTDTSYGLYSTSWFRKNPGTTDWERMSIGGRYVESVNKGAKSFSLRIKDLTVADSATYYCKAQSLAISTRSYWYDGAGTVLTVNQASGAHHHHHHGAEFEQKLISEEDL,binding result,human serum albumin,binds
"2V mFc (Fc fusion, control) TRVDQTPRTATKETGESLTINCVLTDTSYGLYSTSWFRKNPGTTDWERMSIGGRYVESVNKGAKSFSLRIKDLTVADSATYYCKAQSLAISTRSYWYDGAGTVLTVNGGGGSGGGGSGGGGSEPRGPTIKPCPPCKCPAPNLLGGPSVFIFPPKIKDVLMISLSPIVTCVVVDVSEDDPDVQISWFVNNVEVHTAQTQTHREDYNSTLRVVSALPIQHQDWMSGKEFKCKVNNKDLPAPIERTISKPKGSVRAPQVYVLPPPEEEMTKKQVTLTCMVTDFMPEDIYVEWTNNGKTELNYKNTEPVLDSDGSYFMYSKLRVEKKNWVERNSYSCSVVHEGLHNHHTTKSFSRTPGK",binding result,[18],no binding
same,binding result,[19],no binding
